Measured values: patent US20140242093A1, “METHODS AND COMPOSITIONS FOR MODULATING THE INNATE IMMUNE RESPONSE AND/OR MYOGENESIS IN A MAMMALIAN SUBJECT” (FRED HUTCHINSON CANCER RESEARCH CENTER, priority 2011, published 2014)
Entries after “also recorded” stand apart in the source; their conditions may differ.

Key:
[1] = test system: FSHD cultured myoblasts; assay: Dominant negative inhibition of DUX4-fl by lenti-DUX4-s in FSHD muscle cells; type: cell-based, human; settings: lentiviral expression in FSHD muscle cells, 48 hours of differentiation
Experimental: Simultaneously, cells were transduced by lentivirus carrying DUX4-s or GFP along with 8 μg/mL polybrene. Cells were washed and changed to plain differentiation media after 24 hours. Cells were harvested for RNA after 48 hours of differentiation. Untransduced cells were used to assess baseline expression of DUX4-fl target genes.

[2] = test system: Cultured control human myoblasts; assay: Beta-defensin 3 and innate immune response, real-time qPCR of IFIH1, ISG20, DEFB103; type: cell-based; settings: RT-qPCR, similar titers, FIG. 7A
Experimental: Cultured control human myoblasts were grown to 80% confluence and infected with equivalent titers of lenti-GFP, lenti-DUX4-s and lenti-DUX4-fl in growth media supplemented with 8 μg/mL polybrene. Expression of innate immune responsive genes including IFIH1 (MDA5), ISG20 and DEFB103 were assessed by real-time qPCR as previously described at 24 hours (primer sequences below). For conditioned media, cells were infected with lenti-DUX4-fl for 12 hours, thoroughly washed 3 times with PBS and switched to fresh growth media to condition for 12 hours. Control conditioned media was produced from cells not infected with any lentivirus. Myoblasts were infected with lenti-GFP in either control conditioned media, lenti-DUX4-fl conditioned media or regular growth media supplemented with 1 μM human β-defensin 3 (Peptides International, Louisville, Ky.). Expression of innate immune responsive genes were examined after 24 hours.

[3] = test system: 31-bp oligonucleotides containing the putative DUX4 binding site; assay: Electromobility shift assay (EMSA); design: species or system human; settings: in vitro translated protein; TRIM48, CSF1R, THE1D oligos
Experimental: EMSA was performed with ^32P-labeled 31-bp oligonucleotides from endogenous genomic sequences containing the putative DUX4 binding site as probes (sequences below; only forward shown). Radiolabeled probes were incubated with in vitro translated protein generated from pCS2-DUX4-fl or pCS2-DUX4-s^2 vectors using the TNT SP6 Coupled Wheat Germ Extract System (Promega) according to manufacturer's instructions. To obtain supershift of protein-DNA complexes, 0.1 μg of E14-3 anti-DUX4 rabbit monoclonal antibody was added to the mixtures. For competition experiments, excess unlabeled probes of either wild-type or mutant sequences were included in the binding reaction. The gels were prepared and run as previously described (Knoepfler et al., 1999).

B1: DUX4-s: short splice form of DUX4 (SEQ ID NO:112), keeps the double-homeobox domains, lacks the C-terminal activation domain (protein, listed as Homo sapiens)
chain: MALPTPSDSTLPAEARGRGRRRRLVWTPSQSEALRACFERNPYPGIATRERLAQAIGIPEPRVQIWFQNERSRQLRQHRRESRPWPGRRGPPEGRRKRTAVTGSQTALLLRAFEKDRFPGIAAREELARETGLPESRIQIWFQNRRARHPGQGGRAPAQV
endogenous expression of DUX4 target genes (PRAMEF1, RFPL2, MBD3L2) [1]: inhibited the endogenous expression of the target genes; also recorded: blocks expression of these three DUX4-fl target genes | induction of the innate immune response in myoblasts [2]: induced the innate immune response | binding to DUX4 core motifs [3]: specifically binds the same core binding site as DUX4-fl
